Experimental data from publication PMC10588329.
Each block holds one substance with its values, some of them ahead of it.

How the values were obtained:
[1] = target: Human wild-type CaMKII α (CaMKII^WT) (human) (UniProt Q9UQM7); assay: mass photometry
CaMKII^L308BzF (human) [2] = target: CaMKII^L308BzF (human) (UniProt Q9UQM7); assay: SEC
CaMKII^L308BzF (human) [3] = target: CaMKII^L308BzF (human) (UniProt Q9UQM7); assay: mass photometry
CaMKII^L308BzF (human) [4] = target: CaMKII^L308BzF (human) (UniProt Q9UQM7); assay: cross-linking

Sequence of UniProt Q9UQM7 (Q9UQM7 6-478): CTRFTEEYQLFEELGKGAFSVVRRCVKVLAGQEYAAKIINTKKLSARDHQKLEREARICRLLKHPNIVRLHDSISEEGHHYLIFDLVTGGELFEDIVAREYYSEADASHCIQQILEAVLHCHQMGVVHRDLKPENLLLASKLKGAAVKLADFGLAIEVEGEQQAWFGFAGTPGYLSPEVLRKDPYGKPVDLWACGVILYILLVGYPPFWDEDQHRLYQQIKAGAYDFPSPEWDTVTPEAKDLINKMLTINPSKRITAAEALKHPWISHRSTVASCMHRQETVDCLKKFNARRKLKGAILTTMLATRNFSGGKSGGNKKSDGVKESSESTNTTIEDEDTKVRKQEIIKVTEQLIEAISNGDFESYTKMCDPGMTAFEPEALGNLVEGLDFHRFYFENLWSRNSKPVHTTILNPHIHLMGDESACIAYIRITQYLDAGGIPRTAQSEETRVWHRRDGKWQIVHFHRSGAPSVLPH

stoichiometry N (Calmodulin per CaMKII dodecamer) [1]: 5
stoichiometry N (Calmodulin per CaMKII holoenzyme) [1]: 6
Substance: Human Calmodulin (self-made) (from UniProt P0DP23 1-149) (natural protein)

stoichiometry N (CaMKII^L308BzF (human) [2]): 12 subunits
stoichiometry N (CaMKII^L308BzF (human) [3]): 12 subunits
Substance: CaMKII^L308BzF (from UniProt Q9UQM7 6-478) (enzyme)

stoichiometry N (Calmodulin per CaMKII dodecamer) (CaMKII^L308BzF (human) [3]): 12
Kd (CaMKII^L308BzF (human) [4]): 2.5 µM
Substance: His-tagged Calmodulin (Calbiochem) (from UniProt P0DP23 1-149) (natural protein)
